Test results published in patent US20210163976A1, “GENETICALLY ALTERED PLANTS EXPRESSING HETEROLOGOUS RECEPTORS THAT RECOGNIZE LIPO-CHITOOLIGOSACCHARIDES” (Aarhus Universitet, priority 2018, published 2021).
Residue numbers refer to the chain shown, from its start. Numbers in names are those of the source.

B1: Q119F: NFP substitution variant outside the hydrophobic patch in LysM2 (protein, UniProt Q0GXS4 28-595, looked up, variant Q119F)
Serine/threonine …: QPLYISETNFTCPVDSPPSCETYVAYRAQSPNFLSLSNISDIFNLSPLRIAKASNIEAEDKKLIPDQLLLVPVTCGCTKNHSFANITYSIKFGDNFFILSITSYQNLTNYLEFKNFNPNLSPTLLPLDTKVSVPLFCKCPSKNQLNKGIKYLITYVWQDNDNVTLVSSKFGASQVEMLAENNHNFTASTNRSVLIPVTSLPKLDQPSSNGRKSSSQNLALIIGISLGSAFFILVLTLSLVYVYCLKMKRLNRSTSSSETADKLLSGVSGYVSKPTMYEIDAIMEGTTNLSDNCKIGESVYKANIDGRVLAVKKIKKDASEELKILQKVNHGNLVKLMGVSSDNDGNCFLVYEYAENGSLEEWLFSESSKTSNSVVSLTWSQRITIAMDVAIGLQYMHEHTYPRIIHRDITTSNILLGSNFKAKIANFGMARTSTNSMMPKIDVFAFGVVLIELLTGKKAMTTKENGEVVILWKDFWKIFDLEGNREERLRKWMDPKLESFYPIDNALSLASLAVNCTADKSLSRPTIAEIVLCLSLLNQPSSEPMLERSLTSGLDAEATHVVTSVIAR
B2: T150H: NFP substitution variant outside the hydrophobic patch in LysM2 (protein, UniProt Q0GXS4 28-595, looked up, variant T150H)
Serine/threonine …: B1 Serine/threonine … with F92Q, T123H
B3: T216F: NFP substitution variant in LysM3 (protein, UniProt Q0GXS4 28-595, looked up, variant T216F)
Serine/threonine …: B1 Serine/threonine … with F92Q, T189F
B4: K141E: NFP substitution variant outside the hydrophobic patch in LysM2 (protein, UniProt Q0GXS4 28-595, looked up, variant K141E)
Serine/threonine …: B1 Serine/threonine … with F92Q, K114E
B5: wild type Nfp gene: wild type Medicago NFP LysM receptor transgene (SEQ ID NO: 1) (protein)
chain: MSAFFLPSSSHALFLVLMLFFLTNISAQPLYISETNFTCPVDSPPSCETYVAYRAQSPNFLSLSNISDIFNLSPLRIAKASNIEAEDKKLIPDQLLLVPVTCGCTKNHSFANITYSIKQGDNFFILSITSYQNLTNYLEFKNFNPNLSPTLLPLDTKVSVPLFCKCPSKNQLNKGIKYLITYVWQDNDNVTLVSSKFGASQVEMLAENNHNFTASTNRSVLIPVTSLPKLDQPSSNGRKSSSQNLALIIGISLGSAFFILVLTLSLVYVYCLKMKRLNRSTSSSETADKLLSGVSGYVSKPTMYEIDAIMEGTTNLSDNCKIGESVYKANIDGRVLAVKKIKKDASEELKILQKVNHGNLVKLMGVSSDNDGNCFLVYEYAENGSLEEWLFSESSKTSNSVVSLTWSQRITIAMDVAIGLQYMHEHTYPRIIHRDITTSNILLGSNFKAKIANFGMARTSTNSMMPKIDVFAFGVVLIELLTGKKAMTTKENGEVVILWKDFWKIFDLEGNREERLRKWMDPKLESFYPIDNALSLASLAVNCTADKSLSRPTIAEIVLCLSLLNQPSSEPMLERSLTSGLDAEATHVVTSVIAR
B6: NFP L147D L154D: double-mutated NFP, leucine residues L147 and L154 replaced with aspartate (protein, UniProt Q0GXS4 28-246, looked up, variant L147D L154D)
extracellular domain: QPLYISETNFTCPVDSPPSCETYVAYRAQSPNFLSLSNISDIFNLSPLRIAKASNIEAEDKKLIPDQLLLVPVTCGCTKNHSFANITYSIKQGDNFFILSITSYQNLTNYLEFKNFNPNDSPTLLPDDTKVSVPLFCKCPSKNQLNKGIKYLITYVWQDNDNVTLVSSKFGASQVEMLAENNHNFTASTNRSVLIPVTSLPKLDQPSSNGRKSSSQNLA
modifications: extracellular domain
notes: double-mutated NFP, leucine residues L147 and L154 replaced with aspartate

Tested on: Medicago nfp mutants
Assay: Complementation assay (nodulation) by hairy root transformation
Format: in vivo
Conditions: 49 days after inoculation with S. meliloti strain 1021, FIG. 6A
Source text: Complementation assay: Construct assembly, plant growth conditions, hairy root transformations, nodulation and ROS assays were generally conducted as described in Bozsoki et al. (2017) (Bozsoki Z, Cheng J, Feng F, Gysel K, Vinther M, Andersen KR, Oldroyd G, Blaise M, Radutoiu S, Stougaard J (2017) Receptor-mediated chitin perception in legume roots is functionally separable from Nod factor perception. Proc Natl Acad Sci 114: E8118-E8127). The tested transgenes were the mutated LysM receptors described in Example 5. In addition, NFP substitution variants replacing residues outside the hydrophobic patch in LysM2 (Q119F, K141E and T150H) or in LysM3 (T216F) were tested.

Row | Molecule | nodules per plant (complementation)
1 | B1 | did not affect nodulation
2 | B2 | did not affect nodulation
3 | B3 | did not affect nodulation
4 | B4 | did not affect nodulation
5 | B5 | 5 nodules per plant
6 | B6 | did not develop any nodules

Same assay, conditions: S. medicae inoculation, 28 dpi, FIG. 6B

Row | Molecule | complementation (nodulation)
7 | B6 | complements poorly
